The values that follow are results of earlier work, collected in paper PMC5805400.

The Kd is the free concentration of one partner at which half of the binding sites on the other are occupied at equilibrium, for simple one-to-one binding. As a reminder, the Ki is a measure of affinity in units of concentration, obtained from inhibition or displacement.

For data set [1], the target named is CYP2J2 (Homo sapiens) (UniProt P51589). In words: spin shift.
The target in data set [2] is ICP47 (Human alphaherpesvirus 1) (UniProt P03170).
Sequence of UniProt P03170 (P03170 whole entry): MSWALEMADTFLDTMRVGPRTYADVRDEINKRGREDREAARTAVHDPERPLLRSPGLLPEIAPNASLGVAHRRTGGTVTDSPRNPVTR
Data set [3] shares this target. The source holds these as a separate data set.
The target in data set [4] is CYP2B4 (Oryctolagus cuniculus) (UniProt P00178).
Sequence of UniProt P00178 (P00178 whole entry): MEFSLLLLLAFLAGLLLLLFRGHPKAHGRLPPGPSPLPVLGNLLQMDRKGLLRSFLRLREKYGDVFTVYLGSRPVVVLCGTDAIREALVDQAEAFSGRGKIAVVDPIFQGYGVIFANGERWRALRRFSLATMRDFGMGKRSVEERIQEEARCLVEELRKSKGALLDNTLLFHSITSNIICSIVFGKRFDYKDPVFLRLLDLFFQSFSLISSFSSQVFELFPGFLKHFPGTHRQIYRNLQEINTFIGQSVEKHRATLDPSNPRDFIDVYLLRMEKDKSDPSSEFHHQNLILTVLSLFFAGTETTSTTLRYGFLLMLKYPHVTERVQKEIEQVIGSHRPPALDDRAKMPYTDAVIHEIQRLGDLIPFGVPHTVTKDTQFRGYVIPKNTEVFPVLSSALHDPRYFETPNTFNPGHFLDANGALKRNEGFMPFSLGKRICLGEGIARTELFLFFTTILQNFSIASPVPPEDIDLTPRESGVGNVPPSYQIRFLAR
Data set [5] has the same target. The source holds these as a separate data set.

Where two headings read alike, the source gives them in different places.

Sequence of UniProt P51589 (P51589 whole entry): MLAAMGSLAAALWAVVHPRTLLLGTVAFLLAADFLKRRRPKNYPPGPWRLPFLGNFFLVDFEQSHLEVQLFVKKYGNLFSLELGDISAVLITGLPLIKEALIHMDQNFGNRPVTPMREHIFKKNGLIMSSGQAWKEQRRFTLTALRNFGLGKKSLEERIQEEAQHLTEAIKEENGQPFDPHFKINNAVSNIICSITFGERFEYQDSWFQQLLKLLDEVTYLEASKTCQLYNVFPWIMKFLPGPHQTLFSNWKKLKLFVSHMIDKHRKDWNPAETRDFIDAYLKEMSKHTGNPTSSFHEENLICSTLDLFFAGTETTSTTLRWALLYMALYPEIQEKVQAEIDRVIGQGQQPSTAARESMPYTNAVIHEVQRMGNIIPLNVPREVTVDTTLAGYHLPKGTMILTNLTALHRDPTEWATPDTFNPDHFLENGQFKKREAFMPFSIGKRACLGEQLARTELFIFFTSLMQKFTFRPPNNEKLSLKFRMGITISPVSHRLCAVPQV

For the substance CPR (from UniProt P16435), the Kd in data set [1] is 120 nM. As to TAP (from UniProt Q03518), the Ki was 280 nM in data set [2] and 210 nM in data set [3]. Consider Cytochrome b5 (from UniProt P00169), for which the Kd in data set [4] was 140 nM; in data set [5] it was 8 nM.
